Test results as given in CN115960237A.

B1: 第二单克隆抗体 (second anti-OXA-48 enzyme monoclonal antibody) (antibody, V domains shown)
VH: EVQLVESGGGLVKPGGSLRLSCAASGFTFSGYWMHWVRQAPEKGLVWVAYINSDGSSTNYADSVKGRFTISRDNAKNTLFLQMNSLRAEDTAMYYCARGGGYSYGPFDYWGQGTSVTVSS
VL: QSVLTQPSSASTSPGSSVKLSCTGTSSDIGNNDYVSWYQQYMGRPPTNIIYDVSRRPSGVSDRFSGSIDRSSNTAFLTVNNVQADDEADYYCSSYAGSSNLVFGGGTKLTV
B2: 第一单克隆抗体 (first anti-OXA-48 enzyme monoclonal antibody) (antibody, V domains shown)
VH: EVKLVESGGGLVQPGRSLRLSCATSGFTFADYSMTWVRQPPGKGLEWVGLIKRNAYGGTTEYAASVRGRFTISRDNSQSIAYLQMNTLRTEDTPAYYCLRGYSGYDWEGLDAFDVWGQGTMVTVSS
VL: DIVMSQSPSSLAVSLGEKVTINCKSGQSVLFTSNNKNYLAWYQQKPGQPPKLLISWASTRESGVPDRFSGSGSGTDFTLAISSVQAEDVAVYYCQQYYSPGPFTFGQGTKVEIK

Target: OXA-48酶抗原 (recombinant OXA-48 enzyme antigen) (UniProt Q6XEC0)
UniProt Q6XEC0, sequence (Q6XEC0 23-265 limits assumed): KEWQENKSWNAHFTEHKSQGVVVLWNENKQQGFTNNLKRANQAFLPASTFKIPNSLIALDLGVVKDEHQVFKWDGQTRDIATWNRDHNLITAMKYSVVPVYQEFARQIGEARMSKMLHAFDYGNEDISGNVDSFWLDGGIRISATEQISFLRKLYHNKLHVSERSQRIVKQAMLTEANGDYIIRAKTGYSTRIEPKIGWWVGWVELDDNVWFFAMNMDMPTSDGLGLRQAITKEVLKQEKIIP
Assay: indirect ELISA, OXA-48 antigen coated at 100 ng per well, goat anti-rabbit IgG-HRP, OD450

| Binder | OD值 (OD450 at 1:1280000 dilution) | 效价 (ELISA titer) (dilution factor (1:x)) |
| --- | --- | --- |
| B1 | > 0.5 OD | 1.28e+06 |
| B2 | 0.5 OD | 1.28e+06 |
